Test: soluble on expression in E. coli; label from the status in PepcDB or PDB records

For “MLKFRASFLSLALMLAVPFAPQAVAKTAATTAASQPEIASGSAMIVDLNTNKVIYSNHPDLVRPIASITKLMTAMVVLDARLPLDEILKVDISQTPEMKGVYSRVRLNSEISRKNMLLLALMSSENRAAASLAHYYPGGYNAFIKAMNAKAKALGMTHTRFVEPTGLSIHNVSTARDLTKLLIATKQYPLIGQLSTTREDMATFSHPAYTLPFRNTNHLVYRDNWNIQLTKTGFTNAAGHCLVMRTVINNKPVALVVMDAFGKYTHFADASRLRTWIETGKVMPVPAAALSYKKQKAAQMAAASASAGAQTAQND”, which “soluble on expression in E. coli” value is on record?
The value was “not soluble”.

With “MLKHIISAYNFSRDELEDIFALTDKYSKNLNDTRKILSGKTISIAFFEPSTRTYLSFQKAIINLGGDVIGFSGEESTSVAKGENLADTIRMLNNYSDGIVMRHKYDGASRFASEISDIPVINAGDGKHEHPTQAVIDIYTINKHFNTIDGLVFALLGDLKYARTVNSLLRILTRFRPKLVYLISPQLLRARKEILDELNYPVKEVENPFEVINEVDVLYVTRIQKERFVDEMEYEKIKGSYIVSLDLANKMKKDSIILHPLPRVNEIDRKVDKTTKAKYFEQASYGVPVRMSILTKIYGE” as the sequence, how does the “soluble on expression in E. coli” value read?
Its value is “soluble”.

For “MLKIDAIAFFGSKTKLANVAGVRLASVAAWGELVPEGRAMRLQEASGGELQYDPKVYDEYRKAKRAGRLNNENHH”, which “soluble on expression in E. coli” value is on record?
The value was “not soluble”.

For “MLKKLSPIFSNITGVVRYQDLAYVASVSDEIQEQNIAHSYVTEWDCGTWCVAGEDDDMLPWEIVSATVVHEPVEQALFLGARGQVFCMGSGDIHEEQLPDGDDAIGGRGNMRGVACIDGVAYACGMDRQVYRRFDENDWRAIDTGARPPAGSEAVVGFEAIGGFGAREIYAVGWDGEIWQYDGKRWQPRESPTNLILTAICCAEDGSVYACGQAGTLLRGRNDHWEIIAQDDVDEDLWSLAWFDGALYVSSATAVYTLVGGHLKEVDFGDEQPQRCFHLSAADGVLWSIAAKDIFSFDGQQWTRID”, which “soluble on expression in E. coli” value is on record?
The value was “not soluble”.

For “MLKTNSSRDGKIKLTVDQMLGKLARWIRLMGYDVYYPAGNVSDNEIIEVSKNEGRILITKDYELYSRYPLSIYELYSNIDDQLYDFVFHFRKRTEEEFKRCPVCNGKLVKVYASPHVLNHRDLYRCEFCGKLYWKGTHYKKIYRKLKSLEKKSGAGRLEHHHHHH”, which “soluble on expression in E. coli” value is on record?
Its value is “not soluble”.

For “MLKVKKEVLEKMIKQAERDYPYETCGLLIGKSEGGIRIAYEAFETPNANPDRKHDRYEIAPKDYMRAEDYAISKGMEIVGVYHSHPDHPDRPSQFDLQRAFPDLSYIIFSVQKGKVASYRSWELKGDKFEEEEVEVFE”, which “soluble on expression in E. coli” value is on record?
The value was “not soluble”.

Which “soluble on expression in E. coli” value does the source give for “MLLEPLKQLKQADARLNMTQGVLEGVVGEELGVLPGMDSIFSMLELERLVGFFRQATRKNHKGKPFDVIIYDGISTEETLRMIGLSSKTRLYAKYLRSLAEKTDLGRLTSPSIMRFVDESMNINSNKSPFDGMTSPAMWDTLERFLETGASAWRDPERFRSFLVMDPNNPMSVKAALRYWGCTVQAGSHVSGAFAISSSHLTSQIPKADFVPLPFASASVPFTITGLDWDKILLDQANSSIRELLSETVSHGTSLTQTVMFDTAKKLVTLFMPGFEKSEIKLYQYRGGSELLIEAGDQRRVIHLPSQIQGKVGGAKFVDRSLIVTMR” here?
Its value is “soluble”.

For “MLLHLIYGPTCSGKTDMAIQIAQETGWPVVALDRVQCCPQIATGSGRPLESELQSTRRIYLDSRPLTEGILDAESAHRRLIFEVDWRKSEEGLILEGGSISLLNCMAKSPFWRSGFQWHVKRLRLGDSDAFLTRAKQRVAEMFAIREDRPSLLEELAELWNYPAARPILEDIDGYRCAIRFARKHDLAISQLPNIDAGRHVELIEAIANEYLEHALSQERDFPQWPEDGAGQPVCPVTLTRIRGSRSHHHHHH”, which “soluble on expression in E. coli” value is on record?
The value was “soluble”.

With “MLLLQFSNMVEPTGPAIVEDERTKALNSYRRKLAECRDIEQKLKDLRKKESEMTKQFDKSENDIKSLQSVGQIVGEVLKQLSEEKFIVKATNGPRYVVGCRRSINKEELKQGTRVSLDMTTLTIMRQLPREVDPLVYKMSHEDPGNISYSDVGGLAEQIRELREVVELPLINPELFKRVGITPPKGCLLFGPPGTGKTLLARAVASQLDCNFLKVVSSAIVDKYIGESARMIREMFNYARDHQPCIVFMDEIDAIGGRRFSEGTSADREIQRTLMELLNQLDGFDSLGKVKVIMATNRPDTLDPALLRPGRLDRKIEIGLPNEQSRLEILKIHSNKITKHGEIDFEAVVKLSDGFSAADLRNVCTEAGMFAIRAEREFVIDEDFMKAVRKVGDAKRLETKLDYKPV” as the sequence, how does the “soluble on expression in E. coli” value read?
The value was “not soluble”.
